Measurements: publication PMC4965137, “Temporal Shift of Circadian-Mediated Gene Expression and Carbon Fixation Contributes to Biomass Heterosis in Maize Hybrids”

Assays:
Details in all cases: protein: recombinant; tags: MBP (pMAL-C2); label: 32P 5' end; blunt
rZmCCA1b [1] = molecular target: T1, rZmCCA1b (Zea mays B73, UniProt K7U156 1-720); test: EMSA; 25 mM HEPES-KOH pH 7.5, 75 mM KCl, 2.5 mM DTT, 10% glycerol, 1.25 ng poly-dIdC; 20 fmol probe, 0.5-2 pmol protein; 10 min room temperature then 20 min on ice with probe; 5% native PAGE
T1 sequence (K7U156 entry or part of it): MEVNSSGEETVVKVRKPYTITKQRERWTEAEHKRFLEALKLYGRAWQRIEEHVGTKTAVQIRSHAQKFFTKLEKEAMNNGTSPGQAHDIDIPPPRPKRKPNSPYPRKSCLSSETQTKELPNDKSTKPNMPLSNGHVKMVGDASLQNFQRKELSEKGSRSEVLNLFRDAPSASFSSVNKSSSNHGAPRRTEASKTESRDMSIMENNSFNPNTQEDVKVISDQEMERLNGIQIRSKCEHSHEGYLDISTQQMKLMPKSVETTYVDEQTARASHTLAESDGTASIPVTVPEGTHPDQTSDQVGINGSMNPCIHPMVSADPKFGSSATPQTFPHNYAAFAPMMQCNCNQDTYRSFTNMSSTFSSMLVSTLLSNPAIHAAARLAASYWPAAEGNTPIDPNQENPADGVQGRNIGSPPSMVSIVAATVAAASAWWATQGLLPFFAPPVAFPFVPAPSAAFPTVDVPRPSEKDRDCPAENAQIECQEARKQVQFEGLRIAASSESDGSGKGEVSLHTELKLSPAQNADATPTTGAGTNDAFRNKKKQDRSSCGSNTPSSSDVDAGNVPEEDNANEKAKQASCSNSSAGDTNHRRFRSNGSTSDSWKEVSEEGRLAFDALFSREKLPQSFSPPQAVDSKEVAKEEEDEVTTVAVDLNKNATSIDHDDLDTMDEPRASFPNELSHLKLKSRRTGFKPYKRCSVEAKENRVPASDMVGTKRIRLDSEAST

rZmCCA1a = rZmCCA1a (Zea mays B73, UniProt B6SPA3 129-718); test: EMSA; 1 pmol protein; 25 mM HEPES-KOH pH 7.5, 75 mM KCl, 2.5 mM DTT, 10% glycerol, 1.25 ng poly-dIdC; 20 fmol probe, 0.5-2 pmol protein; 10 min room temperature then 20 min on ice with probe; 5% native PAGE
Chain of rZmCCA1a (B6SPA3 entry or part of it): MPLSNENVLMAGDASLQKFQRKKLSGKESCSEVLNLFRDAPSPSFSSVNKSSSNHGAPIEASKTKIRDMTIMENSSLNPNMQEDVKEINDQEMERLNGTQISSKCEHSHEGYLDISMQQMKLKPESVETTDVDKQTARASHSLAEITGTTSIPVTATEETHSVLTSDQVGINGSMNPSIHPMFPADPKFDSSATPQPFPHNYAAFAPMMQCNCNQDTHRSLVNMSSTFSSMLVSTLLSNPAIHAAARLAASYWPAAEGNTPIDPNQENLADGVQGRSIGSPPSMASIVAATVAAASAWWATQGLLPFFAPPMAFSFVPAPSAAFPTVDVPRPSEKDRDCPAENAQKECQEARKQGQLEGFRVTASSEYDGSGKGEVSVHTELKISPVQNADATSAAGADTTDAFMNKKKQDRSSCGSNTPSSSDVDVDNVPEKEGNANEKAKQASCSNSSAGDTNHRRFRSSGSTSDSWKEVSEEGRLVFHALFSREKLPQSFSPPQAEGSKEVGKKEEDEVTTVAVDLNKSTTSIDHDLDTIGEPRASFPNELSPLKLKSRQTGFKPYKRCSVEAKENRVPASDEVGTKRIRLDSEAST

rZmCCA1b [2] = molecular target: T1, rZmCCA1b; test: EMSA; self-competed by 25-100X unlabeled DNA; 25 mM HEPES-KOH pH 7.5, 75 mM KCl, 2.5 mM DTT, 10% glycerol, 1.25 ng poly-dIdC; 20 fmol probe, 0.5-2 pmol protein; 10 min room temperature then 20 min on ice with probe; 5% native PAGE

| Binder | binding result (rZmCCA1b [1]) | binding result (rZmCCA1a) | binding result (rZmCCA1b [2]) |
| --- | --- | --- | --- |
| GRMZM2G129513 promoter probe (dsDNA) DNA 1: ATTAAATATAAAAATATCTAAATTCATAA DNA 2: TTATGAATTTAGATATTTTTATATTTAAT | binds | – | – |
| GRMZM2G033885 promoter probe (dsDNA) DNA 1: TCAGCACTGAAAAATATCTGAGGTTGAAA DNA 2: TTTCAACCTCAGATATTTTTCAGTGCTGA | binds | – | – |
| ZmPRR59 promoter probe (dsDNA) DNA 1: CTCTTTAAAAAAAAATCTTCATTTAAGG DNA 2: CCTTAAATGAAGATTTTTTTTTAAAGAG | – | no binding | binds |
| ZmTOC1a promoter probe (dsDNA) DNA 1: GGCGAGTTTTAGATATTTTCACCCGCTCC DNA 2: GGAGCGGGTGAAAATATCTAAAACTCGCC | – | no binding | binds |
| gi1 promoter probe (dsDNA) DNA 1: GCATCGCGGAAAAAATCTTTTTCTCGCC DNA 2: GGCGAGAAAAAGATTTTTTCCGCGATGC | – | no binding | binds |
